The source of these data is paper PMC8826850 (2022).

In this test the target is SARS-CoV-2 HexaPro spike protein, wild type (SARS-CoV-2 wild type (GenBank …, UniProt A0A679G9E9, F817 to proline | A892 to proline | A899 to proline | A942 to proline | K986 to …)). Description: BLI. The note with it: both partners purified.

B1: S2-E12 (antibody, V domains shown)
VH: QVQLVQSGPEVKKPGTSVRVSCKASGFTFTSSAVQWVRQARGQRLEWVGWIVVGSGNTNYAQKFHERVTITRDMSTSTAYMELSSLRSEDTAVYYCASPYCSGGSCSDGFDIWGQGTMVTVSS
VL: DIVLTQTPGTLSLSPGERATLSCRASQSVSSSYLAWYQQKPGQAPRLLIYGASSRATGIPDRFSGSGSGTDFTLTISRLEPEDFAVYYCQQYVGLTGWTFGQGTKVEIK
As for B1, the binding result is “binds”.
